The target of one experiment is S. aureus MetRS (Staphylococcus aureus, UniProt Q5HII6). Description: S. aureus MetRS aminoacylation (functional charging) assay. In kind it is biochemical. The conditions noted are these: methionine varied, ATP held at 1.5 mM; read-out: Kl (methionine). On the procedure:
The activity of S. aureus MetRS was monitored by the aminoacylation reaction. The enzyme was diluted in 50 mM HEPES, pH 7.55, 5 mM DTT and 0.01% BSA. A typical 50 μL reaction mixture contained 30 mM HEPES, pH 7.5, 10 mM MgCl2, 30 mM KCl, 90 μM E. coli tRNA, 2 mM ATP and 5 μM [^3H]-methionine (10 Ci/mmol). The reaction was initiated by addition of enzyme at 25° C. At 4 different timepoints, 10 μL of the reaction was quenched into 150 μL cold 5% TCA on a Millipore filter plate. The filter plate is then washed three times with cold 5% TCA followed by water and then ethanol. The filter plate was dried before addition of 100 μL Packard Microscint-20 and counted on a Packard Top-Count microplate scintillation counter.
Inhibition studies were performed for the peptides against two of the substrates, ATP and methionine. This was done at varying concentrations of peptides by holding the concentration of one substrate at its K value (1.5 mM for ATP and 5 μM for methionine), while varying the other substrate concentration around its Km value. The initial velocity data obtained were then analyzed using GraFit.

Experiment [1] has as its system E. coli JM109/pSC/pC^3844. Description: E. coli growth in culture upon regulated expression of Pro-3/GST. In kind it is cell-based, Escherichia coli. The conditions noted are these: anhydrotetracycline induction, compared with GST alone. As to the method:
Overnight cultures of JM109/pSC cells harboring pC^3844 (JM109/pSC/pC^3844), or pPROTet-GST (same as pC^3844 without the Pro-3 peptide sequence) were diluted 100-fold in fresh LB medium containing 34 μg/mL chloramphenicol and 50 μg/mL spectinomycin. After 2 hours growth at 37° C., 100 μL aliquots of each of these bacterial cultures were transferred to wells of a 96-well microtiter plate, with or without 10 ng of anhydrotetracycline dissolved in 1 μL ethanol. The growth of bacterial cultures, which were constantly under agitation, was monitored with a plate reader (SpectraMAX-250, Molecular Devices).

Another experiment addresses T1, E. coli ProRS (Escherichia coli, UniProt P16659).
T1 construct: made in house
T1 sequence (P16659 whole entry, looked up): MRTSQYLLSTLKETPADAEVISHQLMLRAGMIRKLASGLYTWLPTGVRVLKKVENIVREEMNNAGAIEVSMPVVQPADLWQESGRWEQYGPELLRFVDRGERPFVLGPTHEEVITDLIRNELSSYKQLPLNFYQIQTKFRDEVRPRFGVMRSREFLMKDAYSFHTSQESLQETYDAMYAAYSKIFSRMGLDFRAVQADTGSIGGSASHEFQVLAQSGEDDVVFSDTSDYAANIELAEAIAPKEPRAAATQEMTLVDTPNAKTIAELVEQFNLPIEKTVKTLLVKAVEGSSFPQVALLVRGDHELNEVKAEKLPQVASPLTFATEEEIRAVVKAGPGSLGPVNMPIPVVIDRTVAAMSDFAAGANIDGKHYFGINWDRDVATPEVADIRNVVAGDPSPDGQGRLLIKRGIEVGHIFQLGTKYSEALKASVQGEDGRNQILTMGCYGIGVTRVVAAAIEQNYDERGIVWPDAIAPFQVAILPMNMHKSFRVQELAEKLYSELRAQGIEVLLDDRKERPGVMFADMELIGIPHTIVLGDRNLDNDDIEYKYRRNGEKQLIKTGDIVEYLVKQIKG
Put plainly: E. coli ProRS tRNA charging (aminoacylation) inhibition. The format is biochemical. The following applies: read-out: K, (inhibition of E. coli ProRS aminoacylation activity). From the text: In order to produce pure protein for peptide selection, the E. coli ProRS gene (Genbank accession number: M97858) was PCR amplified and cloned into the pET-20b vector (Novagen) using standard molecular cloning protocols (J. Sambrook, et al., Molecular Cloning: A Laboratory Manual, 2nd edition, Cold Spring Harbor Laboratory Press, 1989). The overexpressed ProRS was purified sequentially on Q- and SP-Sepharose columns. […] Thirteen clones from phages that were identified as having a high affinity to ProRS were sequenced. These clones share 4 different sequences, 3 of which are closely related (Table l). See Example 4 of WO98/19162, published 7 May 1998.
The peptide having sequence number 3 was synthesized and tested for inhibition of tRNA charging activity of E. coli ProRS. […] This peptide is called Pro-3 (also, Pro3).
The expressed Pro-3/GST fusion protein was purified on a glutathione-agarose affinity column according to a procedure provided by Pharmacia (see, cg., procedures manual from Pharmacia P-L Biochemicals, Inc.: GST Gene Fusion System, regarding use of pGEX expression vectors and glutathione-S-transferase fusion proteins, 1993). The N-terminal sequence of the purified protein was determined by Edman cycles and confirmed to have the expected Pro-3 peptide sequence. […]

The test system of experiment [2] is E. coli JM109/pSC/pC^3844. Description: Lethal i.p. infection in mice, induced in vivo expression of Pro-3. Set-up: species or system CD-1 female mice. The following applies: E. coli JM109/pSC/pC^3844 10^8 cfu/mouse i.p., i.p. ×2. From the text:
Intracellularly expressed Pro-3 was expected to bind to and inhibit a specific essential cellular target in a manner similar to that of an antimicrobial drug. Pro-3 was expected to cure the infection when its expression was induced in an animal model of bacterial infection. An established animal infection model was used to test this concept (C. O. Onyeji et al., Antimicrob. Agents Chemother. 38:1112-1117 (1994)).
Eight groups of CD-1 female mice (5 mice per group, Charles River Laboratories; Wilmington, Mass.) weighing 20-24 g were used in this experiment. The inoculum was prepared from E. coli JM109/pSC/pC^3844 which was cultured at 37° C. for 17 hr in Luria-Bertani broth containing spectinomycin and chloramphenicol, and then 100 μl of the culture was diluted to 1 ml with medium for reading OD at 600 nm (0.2403, the medium as blank). The turbidity of a 0.5 McFarland standard is equivalent to OD6000.1, or 10^8 cfu/ml. Then 3×10^9 cfu (colony-forming units) of E. coli JM109/pSC/pC^3844 (1.25 ml) from the overnight culture were diluted to 15 ml with 0.01 M phosphate buffered saline (Sigma P-0261) containing 8% hog gastric mucin (Sigma M-2378), 100 μg/ml spectinomycin and 68 μg/ml chloramphenicol. Each mouse of groups 1 through 4 was injected with 0.5 ml of the inoculum intraperitoneally (i.p.), equivalent to 1×10^8 cfu/mouse (lethal dose).
(§1) One and four hours after the inoculation, groups 1 and 5 animals received a saline injection i.p. at 10 ml/kg; groups 2, 3 and 4 animals received i.p. injections of anhydrotetracycline at 2, 1 and 0.5 mg/kg (diluted in saline), respectively; groups 6, 7 and 8 received i.p. injections of anhydrotetracycline at 2, 1 and 0.5 mg/kg, respectively. The injection volume for all the animals was 10 ml/kg.

A further experiment has as its system E. coli pPROTet-GST. Description: Lethal i.p. infection in mice, vector control strain. The conditions noted are these: E. coli pPROTet-GST 10^8 cfu/mouse i.p., i.p. ×2. In kind it is in vivo, CD-1 female mice. On the procedure:
Groups 5 through 8 served as vector control. The control inoculum was prepared from E. coli pPROTet-GST whose vector carries a gene encoding glutathione S-transferase, but no Pro-3 peptide. E. coli pPROTet-GST was cultured at 37° C. for 17 hr in Luria-Bertani broth containing spectinomycin and chloramphenicol, and then 100 μl of the culture were diluted to 1 ml with the medium for reading OD at 600 nm (0.2858, the medium as blank). Then 3×10^9 cfu (1.05 ml) from the overnight culture were diluted to 15 ml with 0.01 M phosphate buffered saline containing 8% hog gastic mucin. Each mouse of groups 5 through 8 was injected (i.p.) with E. coli pPROTet-GST inocula equivalent to 1×10^8 cfu/mouse (lethal dose).
as §1

The target of experiment [3] is T2, E. coli prolyl-tRNA synthetase (ProRS) (Escherichia coli), P16659.
T2 chain: T1 sequence (P16659 whole entry, looked up)
Put plainly: inhibition of tRNA charging activity, synthetic peptide.

For experiment [4], the target named is E. coli prolyl-tRNA synthetase (ProRS) (Escherichia coli) (UniProt P16659). Description: inhibition of ProRS enzyme activity, purified fusion protein.
Experiment [5] shares this target. Description: cell-based or functional assay.

Ends that are not written are not given here.

Chain of S. aureus MetRS (Q5HII6 whole entry): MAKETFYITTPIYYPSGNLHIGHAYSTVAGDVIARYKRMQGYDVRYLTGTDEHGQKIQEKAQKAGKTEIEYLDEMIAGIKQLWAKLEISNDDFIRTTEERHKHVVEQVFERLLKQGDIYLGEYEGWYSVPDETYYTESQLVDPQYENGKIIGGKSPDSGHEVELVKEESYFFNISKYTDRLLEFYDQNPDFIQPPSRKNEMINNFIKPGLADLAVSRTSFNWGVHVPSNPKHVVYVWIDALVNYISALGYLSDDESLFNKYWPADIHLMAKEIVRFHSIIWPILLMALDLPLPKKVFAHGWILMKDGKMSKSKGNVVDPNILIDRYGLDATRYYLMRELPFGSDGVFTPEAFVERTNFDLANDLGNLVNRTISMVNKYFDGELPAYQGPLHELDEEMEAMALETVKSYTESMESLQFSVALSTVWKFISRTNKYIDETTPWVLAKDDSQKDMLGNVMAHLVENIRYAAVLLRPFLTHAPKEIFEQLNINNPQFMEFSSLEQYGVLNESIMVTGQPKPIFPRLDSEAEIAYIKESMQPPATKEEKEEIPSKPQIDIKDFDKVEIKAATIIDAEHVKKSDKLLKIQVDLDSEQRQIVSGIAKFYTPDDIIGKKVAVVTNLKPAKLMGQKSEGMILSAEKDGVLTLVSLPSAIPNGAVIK

MWDLPYIWSRPV [JT02]: the Ki at S. aureus MetRS came out at 1700 nM.
As for “Pro-3/GST: Pro-3 peptide fused through a 4-amino acid linker to glutathione S-transferase (GST), expressed from pC^3844 (SREWHFWRDYNPTSREGGG; also: fused to GST through a linker, GST left off)”, the “E. coli growth (OD600) upon expression” value in experiment [1] was “inhibits E. coli growth”. In the experiment with E. coli ProRS, the Ki worked out at 180 nM.
As to `Cc1c2c(c(O)c3c(O)cccc13)C(=O)[C@]1(O)C(=O)C(C(N)=O)=C(O)[C@@H](N(C)C)[C@@H]1C2` [Anhydrotetracycline, anhydrotetracycline], the “Survival (7 days)” value in experiment [2] (inducer 0.5 mg/kg) was 5/5; in experiment [2] (inducer 1 mg/kg), 5/5; in experiment [2] (inducer 2 mg/kg) it was 5/5; with E. coli pPROTet-GST (inducer 0.5 mg/kg), 0/5; with E. coli pPROTet-GST (inducer 1 mg/kg), 0/5; in the experiment on E. coli pPROTet-GST (inducer 2 mg/kg) it was 0/5.
Take SREWHFWRDYNPTSR (modifications not checked) [Pro-3 peptide (…)]: in experiment [3], the Ki was found to be 300 nM.
In experiment [4], SREWHFWRDYNPTSREGGG [Pro-3/GST fusion protein] registered a Ki of 180 nM. For the same molecule, in experiment [5], the Charged tRNA (tRNA-Pro) in cells, +Inducer amounted to 23%; the Charged tRNA (tRNA-Pro) in cells, -Inducer amounted to 70%; the Survival (7 days), mice infected with E. coli JM109/pSC/pC3844, anhydrotetracycline 0.5 mg/kg i.p. x2 is 5 of 5 mice; the Survival (7 days), mice infected with E. coli JM109/pSC/pC3844, anhydrotetracycline 1 mg/kg i.p. x2 is 5 of 5 mice. In addition, in experiment [5], the Survival (7 days), mice infected with E. coli JM109/pSC/pC3844, anhydrotetracycline 2 mg/kg i.p. x2 is 5 of 5 mice and the Survival (7 days), mice infected with E. coli JM109/pSC/pC3844, saline (no induction) is 0 of 5 mice.

Source of the values: patent US6846625B1, “Method for identifying validated target and assay combination for drug development” (priority 1998, dated 2005).
